Assay results published in article PMC3326525 (Nature structural & molecular biology, 2011).
Read-outs that look alike come from different tables or passages of the source. Values belong to the binder of their own block, whether it stands above or below them.

Columns and labels:
ECFP-RNF4 (wild-type) [1] = target: T1, ECFP-RNF4 (wild-type) (Rattus norvegicus, UniProt O88846 1-194); assay: FRET or BRET
T1 sequence: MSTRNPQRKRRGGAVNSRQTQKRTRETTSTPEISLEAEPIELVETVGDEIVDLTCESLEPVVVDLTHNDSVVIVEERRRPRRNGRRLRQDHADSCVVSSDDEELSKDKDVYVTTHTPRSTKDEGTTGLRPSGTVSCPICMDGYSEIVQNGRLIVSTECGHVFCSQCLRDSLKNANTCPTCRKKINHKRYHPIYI

ECFP-RNF4 (wild-type) [2] = target: T1, ECFP-RNF4 (wild-type); assay: FRET or BRET; remark: listed apart in the source
MBP-RNF4 (wild-type) = target: T2, MBP-RNF4 (wild-type) (Rattus norvegicus, UniProt O88846 1-194); assay: pull-down
T2 sequence: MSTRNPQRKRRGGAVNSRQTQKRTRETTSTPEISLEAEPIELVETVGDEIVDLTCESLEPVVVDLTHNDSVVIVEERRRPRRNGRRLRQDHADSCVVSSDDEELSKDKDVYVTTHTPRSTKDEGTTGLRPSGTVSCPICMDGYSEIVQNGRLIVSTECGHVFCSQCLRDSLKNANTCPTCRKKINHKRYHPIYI

[3] = target: the molecule itself

- binding result (ECFP-RNF4 (wild-type) [1]): binds
B1: YFP-RING domain of RNF4 (wild-type) (domain or fragment)
chain: VSCPICMDGYSEIVQNGRLIVSTECGHVFCSQCLRDSLKNANTCPTCRKKINHKRYHPIYI

- binding result (ECFP-RNF4 (wild-type) [2]): binds
B2: YFP-RING M140A R181A (domain or fragment)
chain: VSCPICADGYSEIVQNGRLIVSTECGHVFCSQCLRDSLKNANTCPTCAKKINHKRYHPIYI

- binding result (MBP-RNF4 (wild-type)): binds
B3: UbcH5a (N77A C85S)~Ub oxyester (complex)
chain 1: not shown
chain 2: […]

- binding result (ECFP-RNF4 (wild-type) [1]): binds
B4: RNF4 Y193H (natural protein)
chain: MSTRNPQRKRRGGAVNSRQTQKRTRETTSTPEISLEAEPIELVETVGDEIVDLTCESLEPVVVDLTHNDSVVIVEERRRPRRNGRRLRQDHADSCVVSSDDEELSKDKDVYVTTHTPRSTKDEGTTGLRPSGTVSCPICMDGYSEIVQNGRLIVSTECGHVFCSQCLRDSLKNANTCPTCRKKINHKRYHPIHI

B5: RNF4 L152A (natural protein)
chain: MSTRNPQRKRRGGAVNSRQTQKRTRETTSTPEISLEAEPIELVETVGDEIVDLTCESLEPVVVDLTHNDSVVIVEERRRPRRNGRRLRQDHADSCVVSSDDEELSKDKDVYVTTHTPRSTKDEGTTGLRPSGTVSCPICMDGYSEIVQNGRAIVSTECGHVFCSQCLRDSLKNANTCPTCRKKINHKRYHPIYI
- stoichiometry N [3]: 2
